Biological target: T1, KmtR (UniProt O53838 1-130)
T1 sequence: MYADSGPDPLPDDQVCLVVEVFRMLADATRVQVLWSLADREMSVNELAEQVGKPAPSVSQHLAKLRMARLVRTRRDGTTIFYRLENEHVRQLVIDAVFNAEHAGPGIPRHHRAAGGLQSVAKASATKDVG
Test: fluorescence anisotropy

B1: PRv0286 32-mer (Rv0826 promoter) (dsDNA)
DNA 1: TCCATAGTGACAACGTGCGTAGTCAGAATTCG
DNA 2: CGAATTCTGACTACGCACGTTGTCACTATGGA
- binding result: no binding
